Results taken from publication PMC12784962, “https://orcid.org/0000-0002-3633-7823 Baral Joydeep Department of Bioscience and Biotechnology, Indian Institute of Technology Kharagpur, West Midnapore 721302, West Bengal, India”.

Target: the molecule itself
Test: cryo-EM structure; monomer to monomer within the homodimer; 5 µM mKu dimer with equimolar 40-bp linear dsDNA or short hairpin DNA, 30 min at 4°C

B1: mycobacterial Ku (mKu), Mycobacterium tuberculosis, wild type (natural protein)
chain: MRAIWTGSIAFGLVNVPVKVYSATADHDIRFHQVHAKDNGRIRYKRVCEACGEVVDYRDLARAYESGDGQMVAITDDDIASLPEERSREIEVLEFVPAADVDPMMFDRSYFLEPDSKSSKSYVLLAKTLAETDRMAIVHFTLRNKTRLAALRVKDFGKREVMMVHTLLWPDEIRDPDFPVLDQKVEIKPAELKMAGQVVDSMADDFNPDRYHDTYQEQLQELIDTKLEGGQAFTAEDQPRLLDEPEDVSDLLAKLEASVKARSKANSNVPTPP
notes: Ku protein of Mycobacterium tuberculosis, gene Rv0937c, 31 kDa; the C-terminal 46 residues are not seen in the maps; also called mKu WT; mKu-WT
- binding result: binds
